Assay [1] deals with HLA-C*03:04 on single-antigen beads. Kind of assay: Luminex single-antigen HLA bead binding assay.
For assay [2], the target named is HLA-C*06:02 on single-antigen beads. Kind of assay: Luminex single-antigen HLA bead binding assay.

In general, Kd refers to the concentration at which binding is half-saturated. A lower Kd goes with higher affinity.

“soluble KIR2DL2*001 Fc fusion protein (sKIR2DL2*001) (from UniProt P43627 22-245)” came in with a dissociation constant Kd in assay [1] of 200 nM. Besides, the MFI at 20 μg/ml in assay [2] was less than 500 MFI.

Consider “soluble KIR2DL2*003 Fc fusion protein (sKIR2DL2*003) (from UniProt P43627 22-245)”, for which the Kd stood at 700 nM in assay [1] and 24000 nM in assay [2]. The substance further displayed an MFI at 20 μg/ml in assay [2] of less than 500 MFI.

On to “soluble KIR2DL2*006 Fc fusion protein (sKIR2DL2*006) (from UniProt P43627 22-245)”, for which, in assay [2], the dissociation constant Kd was 4300 nM and the MFI at 20 μg/ml was less than 500 MFI.

In the case of “soluble KIR2DL3*001 Fc fusion protein (sKIR2DL3*001) (from UniProt P43628 22-245)”, the Kd in assay [1] amounted to 1000 nM. That is a single-digit micromolar value.

For “soluble KIR2DL3*002 Fc fusion protein (sKIR2DL3*002) (from UniProt P43628 22-245)”, the Kd in assay [1] is 1200 nM.

In turn, “soluble KIR2DL3*005 Fc fusion protein (sKIR2DL3*005) (from UniProt P43628 22-245)” registered a Kd in assay [1] of 100 nM. In assay [2], this substance yielded an equilibrium dissociation constant (Kd) of 7000 nM and an MFI at 20 μg/ml of less than 500 MFI.

Values taken from article PMC3679298.
